Experimental data as given in article PMC4066409.

What was measured:
[1] = system: NZF-1-F2F3 H515Q; assay: fluorescence anisotropy; details: not given in the material (ESI)
[2] = system: NZF-1-F2F3 H559Q; assay: fluorescence anisotropy; details: not given in the material (ESI)

βRAR DNA
Kd [1]: 3 µM | Kd [2]: 3.7 µM
